# In US20230002480A1:
# Assays:
# Assay in all cases: cell-based or functional assay
# [1] = molecular target: HIV-1 Env of pseudovirus X1193_c1 (HIV-1)
# [2] = molecular target: HIV-1 Env of pseudovirus ZM197M.PB7 (HIV-1)
# [3] = molecular target: HIV-1 Env of pseudovirus Du172.17 (HIV-1)
# [4] = molecular target: HIV-1 Env of pseudovirus Ce0393_C3 (HIV-1)
# [5] = molecular target: HIV-1 Env of pseudovirus 1056_10_TA11_1826 (HIV-1)
# [6] = molecular target: HIV-1 Env of pseudovirus T251-18 (HIV-1)
# [7] = molecular target: HIV-1 Env of pseudovirus 0815.v3.c3 (HIV-1)
# [8] = molecular target: HIV-1 Env of pseudovirus Q461.e2 (HIV-1)
# [9] = molecular target: HIV-1 Env of pseudovirus T257-31 (HIV-1)
# [10] = molecular target: HIV-1 Env of pseudovirus Ce704809221_1B3 (HIV-1)
# [11] = molecular target: HIV-1 Env of pseudovirus C2101.c01 (HIV-1)
# [12] = molecular target: HIV-1 Env of pseudovirus ZM214M.PL15 (HIV-1)
# [13] = molecular target: HIV-1 Env of pseudovirus CNE21 (HIV-1)
# [14] = molecular target: HIV-1 Env of pseudovirus 6811.v7.c18 (HIV-1)
# [15] = molecular target: HIV-1 Env of pseudovirus THRO4156.18 (HIV-1)
# [16] = molecular target: HIV-1 Env of pseudovirus AC10.0.29 (HIV-1)
# [17] = molecular target: HIV-1 Env of pseudovirus Ce0682_E4 (HIV-1)
# [18] = molecular target: HIV-1 Env of pseudovirus 3301.v1.c24 (HIV-1)
# [19] = molecular target: HIV-1 Env of pseudovirus Ce2060_G9 (HIV-1)
# [20] = molecular target: HIV-1 Env of pseudovirus ZM249M.PL1 (HIV-1)
# [21] = molecular target: HIV-1 Env of pseudovirus 6540.v4.c1 (HIV-1)
# [22] = molecular target: HIV-1 Env of pseudovirus TRJO4551.58 (HIV-1)
# [23] = molecular target: HIV-1 Env of pseudovirus CAP210.2.00.E8 (HIV-1)
# [24] = molecular target: HIV-1 Env of pseudovirus 9004SS_A3_4 (HIV-1)
# [25] = molecular target: HIV-1 Env of pseudovirus 7030102001E5(Rev-) (HIV-1)
# [26] = molecular target: HIV-1 Env of pseudovirus X2088_c9 (HIV-1)
# [27] = molecular target: HIV-1 Env of pseudovirus X2131_C1_B5 (HIV-1)
# [28] = molecular target: HIV-1 Env of pseudovirus T250-4 (HIV-1)
# [29] = molecular target: HIV-1 Env of pseudovirus WITO4160.33 (HIV-1)
# [30] = molecular target: HIV-1 Env of pseudovirus ZM135M.PL10a (HIV-1)
# [31] = molecular target: HIV-1 Env of pseudovirus T255-34 (HIV-1)
# [32] = molecular target: HIV-1 Env of pseudovirus 928-28 (HIV-1)
# [33] = molecular target: HIV-1 Env of pseudovirus CNE20 (HIV-1)
# [34] = molecular target: HIV-1 Env of pseudovirus CNE52 (HIV-1)
# [35] = molecular target: HIV-1 Env of pseudovirus 191084 B7-19 (HIV-1)
# [36] = molecular target: HIV-1 Env of pseudovirus 246F C1G (HIV-1)
substance,measurement,setting,value
N49P6 (antibody),IC50,[1],0.074 µg/mL
same,IC80,[1],0.224 µg/mL
same,MPI,[1],100
same,IC50,[2],3 µg/mL
same,IC80,[2],12.4 µg/mL
same,MPI,[2],98
same,IC50,[3],20.8 µg/mL
same,IC80,[3],> 50 µg/mL
same,MPI,[3],74
same,IC50,[4],0.608 µg/mL
same,IC80,[4],3.25 µg/mL
same,MPI,[4],100
same,IC50,[5],0.209 µg/mL
same,IC80,[5],0.606 µg/mL
same,MPI,[5],100
same,IC50,[6],0.344 µg/mL
same,IC80,[6],0.929 µg/mL
same,MPI,[6],100
same,IC50,[7],0.194 µg/mL
same,IC80,[7],1.25 µg/mL
same,MPI,[7],100
same,IC50,[8],0.173 µg/mL
same,IC80,[8],0.622 µg/mL
same,MPI,[8],100
same,IC50,[9],0.147 µg/mL
same,IC80,[9],0.535 µg/mL
same,MPI,[9],100
same,IC50,[10],1.67 µg/mL
same,IC80,[10],12.8 µg/mL
same,MPI,[10],97
same,IC50,[11],0.14 µg/mL
same,IC80,[11],0.597 µg/mL
same,MPI,[11],100
same,IC50,[12],0.51 µg/mL
same,IC80,[12],1.8 µg/mL
same,MPI,[12],100
same,IC50,[13],0.832 µg/mL
same,IC80,[13],6.52 µg/mL
same,MPI,[13],99
same,IC50,[14],0.238 µg/mL
same,IC80,[14],1.01 µg/mL
same,MPI,[14],100
same,IC50,[15],12.5 µg/mL
same,IC80,[15],38.4 µg/mL
same,MPI,[15],89
same,IC50,[16],32.3 µg/mL
same,IC80,[16],> 50 µg/mL
same,MPI,[16],67
same,IC50,[17],0.095 µg/mL
same,IC80,[17],0.315 µg/mL
same,MPI,[17],100
same,IC50,[18],0.054 µg/mL
same,IC80,[18],0.149 µg/mL
same,MPI,[18],100
same,IC50,[19],0.888 µg/mL
same,IC80,[19],4.81 µg/mL
same,MPI,[19],100
same,IC50,[20],0.112 µg/mL
same,IC80,[20],0.376 µg/mL
same,MPI,[20],100
same,IC50,[21],14 µg/mL
same,IC80,[21],47.5 µg/mL
same,MPI,[21],81
same,IC50,[22],0.255 µg/mL
same,IC80,[22],0.874 µg/mL
same,MPI,[22],100
same,IC50,[23],22.6 µg/mL
same,IC80,[23],> 50 µg/mL
same,MPI,[23],73
same,IC50,[24],0.181 µg/mL
same,IC80,[24],0.817 µg/mL
same,MPI,[24],100
same,IC50,[25],0.354 µg/mL
same,IC80,[25],1.17 µg/mL
same,MPI,[25],100
same,IC50,[26],27 µg/mL
same,IC80,[26],> 50 µg/mL
same,MPI,[26],65
same,IC50,[27],0.174 µg/mL
same,IC80,[27],0.72 µg/mL
same,MPI,[27],100
same,IC50,[28],21.9 µg/mL
same,IC80,[28],> 50 µg/mL
same,MPI,[28],68
same,IC50,[29],0.096 µg/mL
same,IC80,[29],0.277 µg/mL
same,MPI,[29],100
same,IC50,[30],0.494 µg/mL
same,IC80,[30],1.77 µg/mL
same,MPI,[30],99
same,IC50,[31],0.076 µg/mL
same,IC80,[31],0.392 µg/mL
same,MPI,[31],100
same,IC50,[32],1.24 µg/mL
same,IC80,[32],5.6 µg/mL
same,MPI,[32],99
same,IC50,[33],2.74 µg/mL
same,IC80,[33],15.6 µg/mL
same,MPI,[33],95
same,IC50,[34],0.028 µg/mL
same,IC80,[34],0.095 µg/mL
same,MPI,[34],100
same,IC50,[35],0.062 µg/mL
same,IC80,[35],0.257 µg/mL
same,MPI,[35],100
same,IC50,[36],0.513 µg/mL
same,IC80,[36],2.51 µg/mL
same,MPI,[36],99
